Test results from US20230158141A1.
Residue numbers refer to the chain shown, from its start.

B1: Ritu-se001 conjugated to S47 (antibody, human IgG1, kappa, V domains shown)
VH: QVQLQQPGAELVKPGASVKMSCKASGYTFTSCNMHWVKQTPGRGLEWIGAIYPGNGDTSYNQKFKGKATLTADKSSSTAYMQLSSLTSEDSAVYYCARSTYYGGDWYFNVWGAGTTVTVSA
VL: QIVLSQSPAILSASPGEKVTMTCRASSSVSYIHWFQQKPGSSPKPWIYATSNLASGVPVRFSGSGSGTSYSLTISRVEAEDAATYYCQQWTSNPPTFGGGTKLEIKR
modifications: S47 on Cys 32
B2: Ritu-se002 conjugated to S47 (antibody, human IgG1, kappa, V domains shown)
VH: B1 VH with C32Y, K63C
VL: B1 VL
modifications: S47 on Cys 63
B3: Beva-se002 conjugated to S47 (antibody, human IgG1, kappa, V domains shown)
VH: EVQLVESGGGLVQPGGSLRLSCAASGYTFTNYGMNWVRQAPGKGLEWVGWINTYTGEPTYAADFKRRFTFSLDTSKSTAYLQMNSLRAEDTAVYYCAKYPHYYGSSHWYFDVWGQGTLVTVSS
VL: DIQMTQSPSSLSASVGDRVTITCSACQDISNYLNWYQQKPGKAPKVLIYFTSSLHSGVPSRFSGSGSGTDFTLTISSLQPEDFATYYCQQYSTVPWTFGQGTKVEIKR
modifications: S47 on Cys 26
B4: Beva -se004 conjugated to S47 (antibody, human IgG1, kappa, V domains shown)
VH: B3 VH
VL: B3 VL with C26S, T51C
modifications: S47 on Cys 51
B5: Beva-se003 conjugated to S47 (antibody, human IgG1, kappa, V domains shown)
VH: B3 VH
VL: B3 VL with C26S, Y49C
modifications: S47 on Cys 49

Experiments:
His tagged CD20 protein = His tagged CD20 protein (UniProt P11836); experiment: ELISA, His tagged CD20 protein
His tagged VEGF protein = His tagged VEGF protein (UniProt P15692); experiment: ELISA, His tagged VEGF protein
His tagged VEGF protein, sequence (P15692 other isoform, or with tags, fused parts or gaps limits assumed): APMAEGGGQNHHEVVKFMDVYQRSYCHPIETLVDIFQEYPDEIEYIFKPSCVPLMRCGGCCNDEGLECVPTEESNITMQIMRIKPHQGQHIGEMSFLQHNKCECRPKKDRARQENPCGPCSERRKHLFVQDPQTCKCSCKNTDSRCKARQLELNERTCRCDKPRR

Row | Binder | Blocking efficiency of S47 (His tagged CD20 protein) [fold] | Blocking efficiency of S47 (His tagged VEGF protein) [fold]
1 | B1 | 16 | –
2 | B2 | 8 | –
3 | B3 | – | 16
4 | B4 | – | 13
5 | B5 | – | 26
